What was measured:
Lip = settings: optimal pH 9.0, 40 °C; substrate not named, taken as pNPA (best substrate)
[1] = test system: CC(=O)Oc1ccc([N+](=O)[O-])cc1; assay: purified protein; settings: optimal pH 8.5, 40 °C, substrate not named, taken as pNPA (best substrate)

Compound	Km (Lip) [µM]	Km [1] [µM]	kcat [1] [s⁻¹]	kcat/Km [1] [M⁻¹ s⁻¹]
CC(=O)Oc1ccc([N+](=O)[O-])cc1 [C2, p-nitrophenyl acetate]	363 ± 30			
Lip (Enterobacter cloacae)		643 ± 30	9.8 ± 0.09	15200 ± 210

— paper PMC5858142, “A novel cold-adapted esterase from Enterobacter cloacae: Characterization and improvement of its activity and thermostability via the site of Tyr193Cys” (Microbial Cell Factories, 2018)
